Measured values as given in US20160215297.

Columns and labels:
Test in all cases: cell_activity
[1] = system: Il2rg TALEN right (synthetic construct); conditions: pair with TALEN left; mRNA electroporated into rat zygotes, 3/17 offspring; Surveyor assay positive in rat fibroblasts
[2] = system: Il2rg TALEN left (synthetic construct); conditions: pair with TALEN right; mRNA electroporated into rat zygotes, 3/17 offspring; Surveyor assay positive in rat fibroblasts
[3] = system: Il2rg ZFN right (synthetic construct); conditions: pair with ZFN left; mRNA electroporated into rat zygotes, 3/4 offspring; Surveyor assay positive in rat fibroblasts; 37% and 73% in Tests 5-1 and 5-2
[4] = system: Il2rg ZFN left (synthetic construct); conditions: pair with ZFN right; mRNA electroporated into rat zygotes, 3/4 offspring; Surveyor assay positive in rat fibroblasts; 37% and 73% in Tests 5-1 and 5-2

## TCCAAGTGCAATTCATATACT (double strand) [Il2rg TALEN right binding site]
[1]
  activity (% mutant offspring): 18

## TCCCAGAGGTTCAATGCT (double strand) [Il2rg TALEN left binding site]
[2]
  activity (% mutant offspring): 18

## GGTATGAGAAGGGGG (double strand) [Il2rg ZFN right binding site]
[3]
  activity (% mutant offspring): 75

## GCATAGTGAGGTTGG (double strand) [Il2rg ZFN left binding site]
[4]
  activity (% mutant offspring): 75
